This is an account of results in paper PMC9817130, “Structural insights into broadly neutralizing antibodies elicited by hybrid immunity against SARS-CoV-2” (Emerging Microbes & Infections, 2023).

The target of the assay is T1, SARS-CoV-2 WT RBD protein (Sino Biological) (SARS-CoV-2 WT, UniProt P0DTC2).
T1 construct: also called viral RBD; immobilized RBD
Put plainly: SPR. Particulars: both partners purified.

B1: LY-CoV1404 (Bebtelovimab) (antibody, V domains shown)
VH: QITLKESGPTLVKPTQTLTLTCTFSGFSLSISGVGVGWLRQPPGKALEWLALIYWDDDKRYSPSLKSRLTISKDTSKNQVVLKMTNIDPVDTATYYCAHHSISTIFDHWGQGTLVTVSS
VL: QSALTQPASVSGSPGQSITISCTATSSDVGDYNYVSWYQQHPGKAPKLMIFEVSDRPSGISNRFSGSKSGNTASLTISGLQAEDEADYYCSSYTTSSAVFGGGTKLTVL
notes: also called class III LY-CoV1404
Consider B1, for which the binding result was “binds”.
